Where two headings read alike, the source gives them in different places.
How the values were obtained:
[1] = biological target: HLA-A*0201 molecule expressed on the human tumoral cell T2 (human); experiment: T2 cell HLA-A2 FACS (BB7.2-PE), peptide 0.1 µM
[2] = biological target: HLA-A*0201 molecule expressed on the human tumoral cell T2 (human); experiment: T2 cell HLA-A2 FACS (BB7.2-PE), peptide 1 µM
[3] = biological target: HLA-A*0201 molecule expressed on the human tumoral cell T2 (human); experiment: T2 cell HLA-A2 FACS (BB7.2-PE), peptide 0.1 µM; remark: listed apart in the source
[4] = biological target: HLA-A*0201 molecule expressed on the human tumoral cell T2 (human); experiment: T2 cell HLA-A2 FACS (BB7.2-PE), peptide titration
[5] = biological target: HLA-A*0201 molecule expressed on the human tumoral cell T2 (human); experiment: T2 cell HLA-A2 FACS (BB7.2-PE), peptide 1 µM; remark: listed apart in the source
[6] = biological target: HLA-A*0201 molecule expressed on the human tumoral cell T2 (human); experiment: T2 cell HLA-A2 FACS (BB7.2-PE), peptide 10 µM
[7] = biological target: HLA-A*0201 molecule expressed on the human tumoral cell T2 (human); experiment: T2 cell HLA-A2 FACS (BB7.2-PE), peptide 0.1 µM; remark: listed apart in the source
[8] = biological target: HLA-A*0201 molecule expressed on the human tumoral cell T2 (human); experiment: T2 cell HLA-A2 FACS (BB7.2-PE), peptide 10 µM; remark: listed apart in the source
[9] = biological target: HLA-A*0201 molecule expressed on the human tumoral cell T2 (human); experiment: T2 cell HLA-A2 FACS (BB7.2-PE), peptide titration; remark: listed apart in the source
[10] = biological target: HLA-A*0201 molecule expressed on the human tumoral cell T2 (human); experiment: T2 cell HLA-A2 FACS (BB7.2-PE), peptide titration; remark: listed apart in the source
[11] = biological target: HLA-A*0201 molecule expressed on the human tumoral cell T2 (human); experiment: T2 cell HLA-A2 FACS (BB7.2-PE), peptide 10 µM; remark: listed apart in the source
[12] = biological target: HLA-A*0201 molecule expressed on the human tumoral cell T2 (human); experiment: T2 cell HLA-A2 FACS (BB7.2-PE), peptide 1 µM; remark: listed apart in the source

reference peptide HIV pol 589-597 was tested, and the HLA-A2 labelling as % of reference peptide HIV pol 589-597 at 100 µM [1] was 5.62%, the HLA-A2 labelling as % of reference peptide HIV pol 589-597 at 100 µM [2] was 4.65% and the HLA-A2 labelling as % of reference peptide HIV pol 589-597 at 100 µM [3] was 2.58%. For the same substance, the Conc. inducing 20% of HLA-A2 expression [4] was 36 µM, the HLA-A2 labelling as % of reference peptide HIV pol 589-597 at 100 µM [5] was -2.54% and the HLA-A2 labelling as % of reference peptide HIV pol 589-597 at 100 µM [6] was 8.8%. The HLA-A2 labelling as % of reference peptide HIV pol 589-597 at 100 µM [7] was -9.24%, the HLA-A2 labelling as % of reference peptide HIV pol 589-597 at 100 µM [8] was -3.03% and the Conc. inducing 20% of HLA-A2 expression [9] was 30.9 µM. For the same substance, the Conc. inducing 20% of HLA-A2 expression [10] was 26.5 µM, the HLA-A2 labelling as % of reference peptide HIV pol 589-597 at 100 µM [11] was 3.8% and the HLA-A2 labelling as % of reference peptide HIV pol 589-597 at 100 µM [12] was -5.38%.

— US20230201322A1
